Our source for the Kd values is publication PMC8754202 (Journal of Virology, 2021).

For assay [1], the target named is N-terminal peptidase domain of human ACE2 [change] variant (residues Met1-Asp615) (human, UniProt Q9BYF1 18-615). Nature of the assay: SPR.
Assay [2] has as its target N-terminal peptidase domain of wild-type human ACE2 (residues Met1-Asp615) (human, UniProt Q9BYF1 18-615). Nature of the assay: SPR.

B1: HCoV-NL63 receptor-binding domain (residues Gln481-Ile616) (domain or fragment)
chain: QHTDINFTATASFGGSCYVCKPHQVNISLNGNTSVCVRTSHFSIRYIYNRVKSGSPGDSSWHIYLKSGTCPFSFSKLNNFQKFKTICFSTVEVPGSCNFPLEATWHYTSYTIVGALYVTWSEGNSITGVPYPVSGI
B1: the figures for the dissociation constant Kd in assay [1] and in assay [2] were 2610 nM and 575 nM, respectively.

B2: SARS-CoV receptor-binding domain (residues Arg306-Leu515) (domain or fragment)
chain: not shown
On to B2, for which the Kd in assay [2] came to 511 nM.

The Kd is a measure of binding affinity in units of concentration.
